Measured values published in patent publication US20190153103A1.

B1: SC91.111 (antibody, V domains shown)
VH: QIQLVQSGPELKKPGETVKISCKASGYTLTTYGMNWVKQAPGKGLKWMGWINTYSGVPAYADDFKGRFAFSLETSASTAYLQINNFKNEDTATYFCARSELRNWYFDVWGTGTTVTVSS
VL: SFVMTQTPKFLLVSAGDRVTITCKASQNMGHNVAWYQQKPGQSPKLLIYYASNRYTGVPDRFTGSGYGTDFTFTISTVQAEDLAVYFCQQDYSSPFTFGSGTKLEIK
B2: SC91.155 (antibody, V domains shown)
VH: QIQLVQSGPELKKPGETVKISCKASGYTFTTYGMNWVKQAPGKGLKWMGWINSYSGVPAYADDFKGRFAFSLETFASTAYLQINNLRDEDTATYFCARSELRNWYFDVWGTGTTVTVSS
VL: SFVMTQTPKFLLVSAGDRVTITCKASQNLGNDVAWYQQKPGQSPRLLIYFASNRYTGVPDRFTGSGYGTDFTFTISTVQAEDLAVYFCQQDYSSPFTFGSGTKLEIK
B3: SC91.160 (antibody, V domains shown)
VH: QIQLVQSGPELKKPGETVKISCKASGYTFTTYGMNWVKQAPGKGLKWMGWINTYSGVPSSADDFKGRFAFSLETSASTAYLLINNLKNEDTATYFCARSELRNWYFDVWGTGTTVTVSS
VL: SFVMTQTPKFLLVSAGDRVTITCKASQNMGHDVAWYQQKPGQSPKLLIYSASNRYTGVPDRFTGSGYGTDFTFTISTVQAEDLAVYFCQQDYSSPFTFGSGTKLEMK
B4: SC91.149 (antibody, V domains shown)
VH: QVQLLQPGAELVKPGSSVKVSCKASGYTFTNYWMQWVKQRPGQGLEWIGEIDPSDTYTLYNQKFKGKATLTVDTSSSTAYMQLSSLTSEDSAVYYCARFGYYVDYWGQGTTLTVSS
VL: DVVMTQTPLSLPVSLGDQASISCRSSQSLVHSTGNTYFHWYLQKPGQSPELLIYKVSNRFSGVPDRFRGSGSGTDFTLKISRVEAEDLGVYFCSQSTHVPFTFGSGTKLEIK
B5: SC91.172 (antibody, V domains shown)
VH: QVQLQQPGADLVKPGTSVKLSCKASGYTFTSYWMQWVKQRPGQGLEWIGEIDPSDTYTMYNQKFKGKATLTVDTSSSTAYMQLSSLTSEDSAVYYCARFGYYVDYWGQGTTLTVSS
VL: DVVMTQTPLSLPVSLGDQASISCRSSQSLVHSTGNTYLHWYLQKAGQSPKLLIYKVSNRFSGVPDRFSGSGSGTDFTLKISRVEAEDLGVYFCSQSTHVPFTFGSGTKLEIK
B6: SC91.187 (antibody, V domains shown)
VH: QVQLQQPGPEFVKPGASVKLSCKASGYTFTSYWVQWVKQRPGQGLEWIGEIDPSDNYTLYNQNFKGKATLTVDTSSSTAYMQLSSLTSEDSAVYYCARFGFYVDYWGQGTTLTVSS
VL: DVVMTQTPLSLPVSLGEQASISCRSSQSLVHSTGNTYLHWYLQKPGQSPKLLIYKVSNRFSGVPDRFSGSGSGTDFTLKISRVEAEDLGVYFCSQSTHVPFTFGSGTKLEIK

Biological target: recombinant human BMPR-1A/ALK-3-Fc Chimera (R&D systems Catalog: 315-BR) (human) (UniProt P36894)
Sequence (P36894 24-152 limits assumed, change not shown): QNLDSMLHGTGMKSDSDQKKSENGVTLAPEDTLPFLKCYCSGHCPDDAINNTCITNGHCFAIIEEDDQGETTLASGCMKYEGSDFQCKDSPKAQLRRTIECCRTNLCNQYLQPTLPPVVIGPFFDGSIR
Experiment: ELISA

Binder	ELISA
B1	0.077
B2	0.059
B3	0.061
B4	0.066
B5	0.062
B6	0.092
